According to publication PMC12420824, “Discovery of a selective alpha-kinase 1 inhibitor for the rare genetic disease ROSAH syndrome” (Nature Communications, 2025):
Blank lines part the entries; values can stand above or below the binder they belong to.

Experiments:
[1] = target: T1, human ALPK1 N-terminal regulatory domain aa. 1-446 (human, UniProt Q96QP1-1 1-446); experiment: crystal structure; mALPK1-KD and ALPK1-ND mixed, complex purified by size exclusion chromatography, 10 mg/ml; hanging drop vapor diffusion, 12% PEG 3350, 0.1 M CBTP pH 8.2; settings: both partners purified
T1 construct: The sentence names the His-TEV tag before the mouse kinase domain; it is read here as applying to both constructs; also called ALPK1-ND; human N-terminal regulatory domain; source: E. coli, purified (Ni column; His-tag cleaved with TEV protease)

[2] = target: the molecule itself; experiment: AlphaScreen or HTRF; TR-FRET after kinase reaction (260 nM HA-His-TIFA, 2 nM ALPK1, 6.25 uM ATP, 20 nM ADP-D-heptose, 1.5 h, 27 °C); anti-HA-Eu cryptate and anti-HA-d2 bound to the same TIFA oligomer, 26 °C for 1 h

T1 sequence (Q96QP1 1-446): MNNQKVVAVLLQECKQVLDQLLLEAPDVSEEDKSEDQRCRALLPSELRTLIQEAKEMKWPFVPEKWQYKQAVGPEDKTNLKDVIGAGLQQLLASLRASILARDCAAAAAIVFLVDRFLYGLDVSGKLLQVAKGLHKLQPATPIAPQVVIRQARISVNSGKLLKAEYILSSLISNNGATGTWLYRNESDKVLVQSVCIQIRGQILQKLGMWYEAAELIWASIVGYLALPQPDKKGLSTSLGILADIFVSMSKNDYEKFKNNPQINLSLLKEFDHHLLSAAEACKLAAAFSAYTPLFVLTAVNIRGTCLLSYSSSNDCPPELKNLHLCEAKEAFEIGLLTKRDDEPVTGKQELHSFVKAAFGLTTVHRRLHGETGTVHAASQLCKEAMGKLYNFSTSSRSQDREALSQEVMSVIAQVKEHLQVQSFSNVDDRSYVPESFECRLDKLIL

binding result [1]: binds
B1: Mouse ALPK1 kinase domain aa. 949-1231 (domain or fragment)
chain: not shown
notes: Used for crystallography in complex with the human N-terminal domain (a complex of two species' forms); also called mALPK1-KD; mouse kinase domain; source: E. coli, purified (Ni column; His-tag cleaved with TEV protease)

B2: recombinant HA-His-tagged TIFA, phosphorylated by ALPK1 (natural protein, human, UniProt Q96CG3 1-184, looked up)
chain: MTSFEDADTEETVTCLQMTVYHPGQLQCGIFQSISFNREKLPSSEVVKFGRNSNICHYTFQDKQVSRVQFSLQLFKKFNSSVLSFEIKNMSKKTNLIVDSRELGYLNKMDLPYRCMVRFGEYQFLMEKEDGESLEFFETQFILSPRSLLQENNWPPHRPIPEYGTYSLCSSQSSSPTEMDENES
modifications: phosphorylated by recombinant ALPK1 in the kinase reaction; residues not stated for this experiment
notes: TIFA, human; source: E. coli, purified (Ni column, desalted); phosphorylated in vitro by recombinant ALPK1; not shown: HA, N-terminal, kept
binding result [2]: binds
